Laboratory results reported in publication PMC12673129, “A GPER-PKA-Centrin axis regulates centrosome numbers and centriole integrity in colon cancer cells” (Communications Biology, 2025).

Target: catalytic subunit α of PKA (PKA-Cα) (human (endogenous in HCT116 and HCT-15), UniProt P17612 1-351)
Experiment: co-IP; immunoprecipitation with anti-PKA Cα (4782, Cell Signaling) and protein-G Sepharose from 2 mg HCT116 lysate, 2 h at 4 °C, IP lysis buffer (50 mM tris/HCl pH 7.4, 150 mM NaCl, 0,25% NP-40); cells mitotically arrested (2 µM dimethylenastron, 16 h) or asynchronous with DMSO, E2, BPA, DES or G-1 for 48 h; Western blot, Centrin-pS170 band normalised to precipitated PKA Cα
Conditions: partners not purified

B1: Centrin-2 phosphorylated at serine 170 (Centrin-2-pS170) (natural protein, human (endogenous in HCT116 and HCT-15), UniProt P41208 1-172, looked up)
chain: MASNFKKANMASSSQRKRMSPKPELTEEQKQEIREAFDLFDADGTGTIDVKELKVAMRALGFEPKKEEIKKMISEIDKEGTGKMNFGDFLTVMTQKMSEKDTKEEILKAFKLFDDDETGKISFKNLKRVAKELGENLTDEELQEMIDEADRDGDGEVSEQEFLRIMKKTSLY
modifications: phosphoserine at 170
notes: Centrin-2, human, endogenous, the form phosphorylated at S170 as detected by the anti-Centrin-2-pS170 antibody (raised against Cys-LRIMKKT(pS)LY172); NM_004344.3 is printed for the Centrin wild-type expression vector, not for the endogenous protein of the co-IP; also called Centrin-pS170; phosphorylated Centrin-2; source: endogenous, HCT116 and HCT-15 lysates
- fold increase of co-precipitated Centrin-pS170 (normalised to PKA-Cα) with BPA, relative to DMSO: 1.8 fold
- fold increase of co-precipitated Centrin-pS170 (normalised to PKA-Cα) with DES, relative to DMSO: 1.6 fold
- fold increase of co-precipitated Centrin-pS170 (normalised to PKA-Cα) with E2, relative to DMSO: 1.4 fold
